# T1: human GITR, membrane bound (human, UniProt Q9Y5U5 26-241)
# T1 sequence: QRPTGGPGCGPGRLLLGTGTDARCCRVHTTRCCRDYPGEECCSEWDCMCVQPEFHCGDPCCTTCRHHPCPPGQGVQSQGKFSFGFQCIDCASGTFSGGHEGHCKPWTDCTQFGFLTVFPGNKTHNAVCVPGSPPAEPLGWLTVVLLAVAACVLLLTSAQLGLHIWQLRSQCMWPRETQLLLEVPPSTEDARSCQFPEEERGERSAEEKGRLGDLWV
# Target: T1, human GITR, membrane bound
# Experiment: cell-based or functional assay
binder,measurement,value
"28F3 (antibody, human IgG2, kappa) heavy: QVQLVESGGGVVQPGRSLRLSCAASGFTFSSYGMHWVRQAPGKGLEWVAVIWYEGSNKYYADSVKGRFTISRDNSKNTLYLQMNSLRAEDTAVYYCARGGSMVRGDYYYGMDVWGQGTTVTVSSASTKGPSVFPLAPCSRSTSESTAALGCLVKDYFPEPVTVSWNSGALTSGVHTFPAVLQSSGLYSLSSVVTVPSSNFGTQTYTCNVDHKPSNTKVDKTVERKCCVECPPCPAPPVAGPSVFLFPPKPKDTLMISRTPEVTCVVVDVSHEDPEVQFNWYVDGVEVHNAKTKPREEQFNSTFRVVSVLTVVHQDWLNGKEYKCKVSNKGLPAPIEKTISKTKGQPREPQVYTLPPSREEMTKNQVSLTCLVKGFYPSDIAVEWESNGQPENNYKTTPPMLDSDGSFFLYSKLTVDKSRWQQGNVFSCSVMHEALHNHYTQKSLSLSPGK light: not shown","NFKB signaling (phospho-p65), CD4+ T cells, Emax (%)",69%
same,"NFKB signaling (phospho-p65), CD8+ T cells, Emax (%)",85%

# Reference: patent publication US20180339042A1 (published 2018)
